From patent publication US20260167699A1 (Chugai, published 2026)

B1: GpH7-A5/GpH7-B3 variant P271_18N/GpL16-k0 (antibody, human IgG1, kappa)
heavy 1: not shown
heavy 2: not shown
light: DIVMTQSPLSLPVTPGEPASISCQASESLVHSNRNTYLHWYLQKPGQSPQLLIYKVSNRFSGVPDRFSGSGSGTDFTLKISRVEAEDVGVYYCSQNTHVPPTFGQGTKVEIERTVAAPSVFIFPPSDEQLKSGTASVVCLLNNFYPREAKVQWKVDNALQSGNSQESVTEQDSKDSTYSLSSTLTLSKADYEKHKVYACEVTHQGLSSPVTKSFNRGEC
notes: heterodimerized IgG1, one H chain mutated; also called He Ab; copies: 1 + 1 + 2
B2: GpH7-A5/GpH7-B3 variant Q295_08L/GpL16-k0 (antibody, human IgG1, kappa)
heavy 1: not shown
heavy 2: not shown
light: DIVMTQSPLSLPVTPGEPASISCQASESLVHSNRNTYLHWYLQKPGQSPQLLIYKVSNRFSGVPDRFSGSGSGTDFTLKISRVEAEDVGVYYCSQNTHVPPTFGQGTKVEIERTVAAPSVFIFPPSDEQLKSGTASVVCLLNNFYPREAKVQWKVDNALQSGNSQESVTEQDSKDSTYSLSSTLTLSKADYEKHKVYACEVTHQGLSSPVTKSFNRGEC
notes: as for B1
B3: GpH7-A5/GpH7-B3 variant Q295_02A/GpL16-k0 (antibody, human IgG1, kappa)
heavy 1: not shown
heavy 2: not shown
light: DIVMTQSPLSLPVTPGEPASISCQASESLVHSNRNTYLHWYLQKPGQSPQLLIYKVSNRFSGVPDRFSGSGSGTDFTLKISRVEAEDVGVYYCSQNTHVPPTFGQGTKVEIERTVAAPSVFIFPPSDEQLKSGTASVVCLLNNFYPREAKVQWKVDNALQSGNSQESVTEQDSKDSTYSLSSTLTLSKADYEKHKVYACEVTHQGLSSPVTKSFNRGEC
notes: as for B1
B4: GpH7-A5/GpH7-B3 variant Q295_03V/GpL16-k0 (antibody, human IgG1, kappa)
heavy 1: not shown
heavy 2: not shown
light: DIVMTQSPLSLPVTPGEPASISCQASESLVHSNRNTYLHWYLQKPGQSPQLLIYKVSNRFSGVPDRFSGSGSGTDFTLKISRVEAEDVGVYYCSQNTHVPPTFGQGTKVEIERTVAAPSVFIFPPSDEQLKSGTASVVCLLNNFYPREAKVQWKVDNALQSGNSQESVTEQDSKDSTYSLSSTLTLSKADYEKHKVYACEVTHQGLSSPVTKSFNRGEC
notes: as for B1
B5: GpH7-A5/GpH7-B3 variant Q295_09D/GpL16-k0 (antibody, human IgG1, kappa)
heavy 1: not shown
heavy 2: not shown
light: DIVMTQSPLSLPVTPGEPASISCQASESLVHSNRNTYLHWYLQKPGQSPQLLIYKVSNRFSGVPDRFSGSGSGTDFTLKISRVEAEDVGVYYCSQNTHVPPTFGQGTKVEIERTVAAPSVFIFPPSDEQLKSGTASVVCLLNNFYPREAKVQWKVDNALQSGNSQESVTEQDSKDSTYSLSSTLTLSKADYEKHKVYACEVTHQGLSSPVTKSFNRGEC
notes: as for B1
B6: GpH7-A5/GpH7-B3 variant Q295_10E/GpL16-k0 (antibody, human IgG1, kappa)
heavy 1: not shown
heavy 2: not shown
light: DIVMTQSPLSLPVTPGEPASISCQASESLVHSNRNTYLHWYLQKPGQSPQLLIYKVSNRFSGVPDRFSGSGSGTDFTLKISRVEAEDVGVYYCSQNTHVPPTFGQGTKVEIERTVAAPSVFIFPPSDEQLKSGTASVVCLLNNFYPREAKVQWKVDNALQSGNSQESVTEQDSKDSTYSLSSTLTLSKADYEKHKVYACEVTHQGLSSPVTKSFNRGEC
notes: as for B1
B7: GpH7-A5/GpH7-B3 variant Q295_06M/GpL16-k0 (antibody, human IgG1, kappa)
heavy 1: not shown
heavy 2: not shown
light: DIVMTQSPLSLPVTPGEPASISCQASESLVHSNRNTYLHWYLQKPGQSPQLLIYKVSNRFSGVPDRFSGSGSGTDFTLKISRVEAEDVGVYYCSQNTHVPPTFGQGTKVEIERTVAAPSVFIFPPSDEQLKSGTASVVCLLNNFYPREAKVQWKVDNALQSGNSQESVTEQDSKDSTYSLSSTLTLSKADYEKHKVYACEVTHQGLSSPVTKSFNRGEC
notes: as for B1
B8: GpH7-A5/GpH7-B3 variant Q295_07I/GpL16-k0 (antibody, human IgG1, kappa)
heavy 1: not shown
heavy 2: not shown
light: DIVMTQSPLSLPVTPGEPASISCQASESLVHSNRNTYLHWYLQKPGQSPQLLIYKVSNRFSGVPDRFSGSGSGTDFTLKISRVEAEDVGVYYCSQNTHVPPTFGQGTKVEIERTVAAPSVFIFPPSDEQLKSGTASVVCLLNNFYPREAKVQWKVDNALQSGNSQESVTEQDSKDSTYSLSSTLTLSKADYEKHKVYACEVTHQGLSSPVTKSFNRGEC
notes: as for B1
B9: GpH7-A5/GpH7-B3 variant Q295_01G/GpL16-k0 (antibody, human IgG1, kappa)
heavy 1: not shown
heavy 2: not shown
light: DIVMTQSPLSLPVTPGEPASISCQASESLVHSNRNTYLHWYLQKPGQSPQLLIYKVSNRFSGVPDRFSGSGSGTDFTLKISRVEAEDVGVYYCSQNTHVPPTFGQGTKVEIERTVAAPSVFIFPPSDEQLKSGTASVVCLLNNFYPREAKVQWKVDNALQSGNSQESVTEQDSKDSTYSLSSTLTLSKADYEKHKVYACEVTHQGLSSPVTKSFNRGEC
notes: as for B1
B10: GpH7-A5/GpH7-B3 variant P271_19Q/GpL16-k0 (antibody, human IgG1, kappa)
heavy 1: not shown
heavy 2: not shown
light: DIVMTQSPLSLPVTPGEPASISCQASESLVHSNRNTYLHWYLQKPGQSPQLLIYKVSNRFSGVPDRFSGSGSGTDFTLKISRVEAEDVGVYYCSQNTHVPPTFGQGTKVEIERTVAAPSVFIFPPSDEQLKSGTASVVCLLNNFYPREAKVQWKVDNALQSGNSQESVTEQDSKDSTYSLSSTLTLSKADYEKHKVYACEVTHQGLSSPVTKSFNRGEC
notes: as for B1
B11: GpH7-A5/GpH7-B3 variant Q295_05P/GpL16-k0 (antibody, human IgG1, kappa)
heavy 1: not shown
heavy 2: not shown
light: DIVMTQSPLSLPVTPGEPASISCQASESLVHSNRNTYLHWYLQKPGQSPQLLIYKVSNRFSGVPDRFSGSGSGTDFTLKISRVEAEDVGVYYCSQNTHVPPTFGQGTKVEIERTVAAPSVFIFPPSDEQLKSGTASVVCLLNNFYPREAKVQWKVDNALQSGNSQESVTEQDSKDSTYSLSSTLTLSKADYEKHKVYACEVTHQGLSSPVTKSFNRGEC
notes: as for B1
B12: GpH7-A5/GpH7-B3 variant Q295_04F/GpL16-k0 (antibody, human IgG1, kappa)
heavy 1: not shown
heavy 2: not shown
light: DIVMTQSPLSLPVTPGEPASISCQASESLVHSNRNTYLHWYLQKPGQSPQLLIYKVSNRFSGVPDRFSGSGSGTDFTLKISRVEAEDVGVYYCSQNTHVPPTFGQGTKVEIERTVAAPSVFIFPPSDEQLKSGTASVVCLLNNFYPREAKVQWKVDNALQSGNSQESVTEQDSKDSTYSLSSTLTLSKADYEKHKVYACEVTHQGLSSPVTKSFNRGEC
notes: as for B1
B13: GpH7-A5/GpH7-B3 variant P271_20W/GpL16-k0 (antibody, human IgG1, kappa)
heavy 1: not shown
heavy 2: not shown
light: DIVMTQSPLSLPVTPGEPASISCQASESLVHSNRNTYLHWYLQKPGQSPQLLIYKVSNRFSGVPDRFSGSGSGTDFTLKISRVEAEDVGVYYCSQNTHVPPTFGQGTKVEIERTVAAPSVFIFPPSDEQLKSGTASVVCLLNNFYPREAKVQWKVDNALQSGNSQESVTEQDSKDSTYSLSSTLTLSKADYEKHKVYACEVTHQGLSSPVTKSFNRGEC
notes: as for B1

Experiments:
Test in all cases: SPR; He Ab vs HeCon Ab (GpH7-A5/GpH7-B3/GpL16-k0)=100;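 note: surface plasmon resonance at 25 °C with the test antibody captured on a sensor chip via antigenic peptide, protein L or protein A/G and FcγR flowed over as analyte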
[1] = molecular target: T1, FcγRIa extracellular domain, C-terminal His tag (human, UniProt P12314 16-292)
T1 construct: extracellular domain; also called 1a
Experimental: (§1) The antibody of interest was analyzed for its interaction with FcγR using a BiaCore™ T100, BiaCore™ A100, or BiaCore™ 4000 surface plasmon resonance system (GE Healthcare Japan Corp.). The running buffer used was HBS-EP+ (GE Healthcare Japan Corp.). The assay temperature was set to 25° C. The sensor chips used were: a chip prepared by immobilizing antigenic peptides onto Series S Sensor Chip CM5 (GE Healthcare Japan Corp.) by the amine coupling method; a chip prepared by immobilizing antigenic peptides biotinylated in advance onto Series S Sensor Chip SA (certified) (GE Healthcare Japan Corp.) through their interaction; a chip prepared by immobilizing protein L (ACTIGEN, BioVision, Inc.) onto Series S Sensor Chip CM5 (GE Healthcare Japan Corp.); and a chip prepared by immobilizing protein A/G (Thermo Fisher Scientific K.K.) onto Series S Sensor Chip CM5 (GE Healthcare Japan Corp.). The antibody of interest was captured onto any of these chips and allowed to interact with FcγR diluted with a running buffer. The antibody captured on the chip was washed off through the reaction of 10 mM glycine-HCl (pH 1.5) to regenerate the chip, which was repetitively used.

[2] = molecular target: T2, FcγRIIa(R) extracellular domain, C-terminal His tag (human, UniProt P12318 34-217)
T2 construct: extracellular domain; also called 2aR
T2 sequence: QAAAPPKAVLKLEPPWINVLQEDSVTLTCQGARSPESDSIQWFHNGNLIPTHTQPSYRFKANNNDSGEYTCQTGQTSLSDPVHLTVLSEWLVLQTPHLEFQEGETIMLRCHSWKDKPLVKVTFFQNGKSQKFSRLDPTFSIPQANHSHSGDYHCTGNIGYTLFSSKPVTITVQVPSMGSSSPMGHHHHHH
Experimental: as §1

[3] = molecular target: T3, FcγRIIa(H) extracellular domain, C-terminal His tag (human, UniProt P12318 34-217)
T3 construct: extracellular domain; also called 2aH
T3 sequence: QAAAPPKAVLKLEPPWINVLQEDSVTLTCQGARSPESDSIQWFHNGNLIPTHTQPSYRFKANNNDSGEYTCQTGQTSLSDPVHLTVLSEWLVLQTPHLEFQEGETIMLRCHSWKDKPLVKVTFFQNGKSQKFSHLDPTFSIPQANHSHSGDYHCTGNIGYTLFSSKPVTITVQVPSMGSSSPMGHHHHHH
Experimental: as §1

[4] = molecular target: T4, FcγRIIb extracellular domain, C-terminal His tag (human, UniProt P31994 43-217)
T4 construct: extracellular domain; also called 2b
T4 sequence: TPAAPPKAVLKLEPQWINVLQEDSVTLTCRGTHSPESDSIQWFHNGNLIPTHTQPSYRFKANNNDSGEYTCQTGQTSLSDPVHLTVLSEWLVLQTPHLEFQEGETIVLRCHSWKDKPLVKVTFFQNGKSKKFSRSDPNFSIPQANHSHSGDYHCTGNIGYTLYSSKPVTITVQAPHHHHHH
Experimental: as §1

[5] = molecular target: T5, FcγRIIIa extracellular domain, C-terminal His tag (human, UniProt P08637 17-208)
T5 construct: extracellular domain; also called 3a
T5 sequence (P08637 other isoform, or with tags, fused parts or gaps): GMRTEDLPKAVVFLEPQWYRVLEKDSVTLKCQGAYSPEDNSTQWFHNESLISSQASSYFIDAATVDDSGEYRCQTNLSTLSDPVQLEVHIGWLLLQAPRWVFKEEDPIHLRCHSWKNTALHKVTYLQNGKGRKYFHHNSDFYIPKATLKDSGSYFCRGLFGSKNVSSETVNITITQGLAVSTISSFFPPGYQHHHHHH
Experimental: as §1

T1 sequence (P12314 other isoform, or with tags, fused parts or gaps): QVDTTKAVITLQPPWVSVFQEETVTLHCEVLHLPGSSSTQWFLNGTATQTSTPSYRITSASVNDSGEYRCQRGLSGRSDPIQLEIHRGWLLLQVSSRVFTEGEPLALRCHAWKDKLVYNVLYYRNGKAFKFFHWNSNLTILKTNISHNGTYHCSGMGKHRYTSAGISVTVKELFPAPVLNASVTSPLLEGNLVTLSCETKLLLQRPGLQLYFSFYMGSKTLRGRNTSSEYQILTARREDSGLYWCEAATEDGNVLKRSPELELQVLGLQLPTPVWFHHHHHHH

Binder | He/Con 1a [1] [%] | He/Con 2aR [2] [%] | He/Con 2aH [3] [%] | He/Con 2b [4] [%] | He/Con 3a [5] [%]
B1 | 102 | 97.7 | 94.5 | 105 | 94
B2 | 103 | 118 | 128 | 134 | 120
B3 | 103 | 91.5 | 101 | 89.4 | 111
B4 | 102 | 90.3 | 106 | 84.9 | 86.2
B5 | 98.5 | 68.7 | 62.6 | 68.1 | 85.6
B6 | 101 | 101 | 112 | 106 | 105
B7 | 102 | 101 | 111 | 101 | 100
B8 | 101 | 97.3 | 117 | 94.5 | 101
B9 | 96.1 | 60.3 | 62.5 | 51.6 | 76.6
B10 | 102 | 95.1 | 90.7 | 99.3 | 84.6
B11 | 102 | 86.6 | 118 | 75.7 | 74.4
B12 | 101 | 82.8 | 87.4 | 72.6 | 75.1
B13 | 101 | 76.6 | 88.7 | 65.1 | 77.8
